Measured values reported in patent US20230357354A1, “CD38-BINDING CD31 PEPTIDES AND USES THEREOF” (ENCEFA, priority 2020, published 2023).

These substances were tested against recombinant His-tagged CD38 (Homo sapiens, UniProt P28907) (assay: Pepscan-based ELISA of His-tagged CD38 on CD31 peptide arrays). Conditions: mimic type BET (β-turn mimic, mP2 CLIPS); sample with the highest signal.
Format: binding
Excerpt: Different sets of sCD31 peptides were synthesized according to the following designs. Note that actual order of peptides on mini-cards in some was randomized. • Set #1 • Mimic type: linear • Label: LIN15 • Linear peptides of 15 consecutive amino acid residues in length, derived from the target sequence of sCD31 with an offset of […]. • Set #2 • Mimic type: single loop (mP2 CLIPS) • Label: LOOP7 • Constrained peptides of 9 amino acid residues in length. On positions 2-8 are incorporated 7 consecutive amino acid residues derived from the target sequence of sCD31 with an offset of 1.3 residues. Cys residues were inserted on positions 1 and 9 and joined by mP2 CLIPS in order to create a loop mimic. Native Cys residues, if present, were replaced by Ser residues. • Set #3 • Mimic type: single loop, (mP2 CLIPS) • Label: LOOP15 • Constrained peptides of 17 amino acid residues in length. On positions 2-16 are incorporated 15 consecutive amino acid residues derived from the target sequence of sCD31 with an offset of […]. Cys residues were inserted on positions 1 and 17 and joined by mP2 CLIPS in order to create a loop mimic. Native Cys residues, if present, were replaced by Ser residues. • Set #4 • Mimic type: β-turn peptide mimics (mP2 CLIPS) • Label: BET • β-turn peptide mimics of 22 amino acid residues in length. On positions 2-21 are incorporated 20 consecutive amino acid residues derived from the target sequence of sCD31 with an offset of 1.3 residues. Residues on positions 11 and 12 are replaced by a Pro-Gly motif in order to induce the β-turn formation. Cys residues were inserted on positions 1 and 22 and joined by mP2 CLIPS in order to stabilize the mimic. Native Cys residues, if present, were replaced by Ser residues.
To reconstruct epitopes of sCD31, a library of peptide-based peptide mimics was synthesized using Fmoc-based solid-phase peptide synthesis. An amino functionalized polypropylene support was obtained by grafting with a hydrophilic polymer formulation, followed by reaction with t-butyloxycarbonyl-hexamethylenediamine (BocHMDA) using dicyclohexylcarbodiimide (DCC) with N-hydroxybenzotriazole (HOBt) and subsequent cleavage of the Boc-groups using trifluoroacetic acid (TFA).
Standard Fmoc-peptide synthesis was used to synthesize peptides on the amino-functionalized solid support by custom modified JANUS liquid handling stations (Perkin Elmer).
Synthesis of structural mimics was done using CLIPS technology. CLIPS technology allows to structure peptides into single loops, double loops, triple loops, sheet-like folds, helix-like folds, and combinations thereof. CLIPS templates are coupled to cysteine residues. The side-chains of multiple cysteines in the peptides are coupled to one or two CLIPS templates. For example, a 0.5 mM solution of the P2 CLIPS (2,6-bis(bromomethyl)pyridine) is dissolved in ammonium bicarbonate (20 mM, pH 7.8)/acetonitrile (1:3, v/v). This solution is added onto the peptide arrays. The CLIPS template binds to side-chains of two cysteines as present in the solid-phase bound peptides of the peptide-arrays (455 wells plate with 3-µL wells). The peptide arrays are gently shaken in the solution for 30 to 60 minutes while completely covered in solution.
Finally, the peptide arrays are washed extensively with excess of H2O and sonicated in disrupt-buffer containing 1% SDS / 0.1 % 2,2′-(ethylenedioxy)diethanethiol in PBS (pH 7.2) at 70° C. for 30 minutes, followed by sonication in H2O for another 45 minutes.
The binding of the sample (recombinant His-tagged CD38; 9 µg/mL and 20 µg/mL) to each of the synthesized peptides was tested in a pepscan-based ELISA. The peptide arrays were incubated with primary sample solution (overnight at 4° C.). […]
For “284 (CEVLRVKVIAPGDEVQISILSC) [compound 284]”, the “Value (binding intensity of His-tagged CD38), BET conformational peptide array” value (shortened to “Value … BET conformational peptide array”) was 447 mAU.
“267 (CSHVKPQHQMPGYKDDVLFYNC) [compound 267]” was tested, and the “Value … BET conformational peptide array” value was 662 mAU.
For “16 (CSEVLRVKVIPGVDEVQISILC; Human CD31 peptide) [compound 16]”, the “Value … BET conformational peptide array” value was 649 mAU.
In the case of “14 (CPPANFTIQKPGTIVSQTQDFC; Human sCD31 peptide) [compound 14]”, the “Value … BET conformational peptide array” value is reported as 739 mAU.
For “271 (CKDDVLFYNIPGMKSTESYFIC) [compound 271]”, the “Value … BET conformational peptide array” value was 695 mAU.
“270 (CYKDDVLFYNPGSMKSTESYFC) [compound 270]” was tested, and the “Value … BET conformational peptide array” value was 378 mAU.
With “274 (CKMVKLKREKPGRDQNFVILEC) [compound 274]” the “Value … BET conformational peptide array” value was 897 mAU.
With “269 (CKPQHQMLFYPGDVLFYNISSC) [compound 269]” the “Value … BET conformational peptide array” value was 641 mAU.
“273 (CVLFYNISSMPGTESYFIPEVC) [compound 273]” was tested, and the “Value … BET conformational peptide array” value was 632 mAU.
With “277 (CSKVESSRISPGSSIVVNITEC) [compound 277]” the “Value … BET conformational peptide array” value was 839 mAU.
In the case of “282 (CVVSEMLSQPPGSYDAQFEVIC) [compound 282]”, the “Value … BET conformational peptide array” value is reported as 635 mAU.

Same assay, conditions: mimic type LIN15; sample with the highest signal (His-tagged CD38 9 or 20 µg/mL)
In the case of 36 (MLFYKDDVLFYNISS) [compound 36], the “Value (binding intensity of His-tagged CD38), LIN15 linear peptide array” value (from here on “Value … LIN15 linear peptide array”) is reported as 451 mAU.
With 100 (SSRISKVSSIVVNIT) [compound 100] the “Value … LIN15 linear peptide array” value was 168 mAU.
38 (LFYKDDVLFYNISSM) [compound 38] was tested, and the “Value … LIN15 linear peptide array” value was 383 mAU.
With “6 (NSRDQNFVILEFPVE; Human sCD31 peptide) [compound 6]” the “Value … LIN15 linear peptide array” value was 1230 mAU.
With 33 (HQMLFYKDDVLFYNI) [compound 33] the “Value … LIN15 linear peptide array” value was 441 mAU.
With 32 (QHQMLFYKDDVLFYN) [compound 32] the “Value … LIN15 linear peptide array” value was 460 mAU.
With 75 (REKNSRDQNFVILEF) [compound 75] the “Value … LIN15 linear peptide array” value was 453 mAU.
In the case of 168 (KQKASKEQEGEYYCT) [compound 168], the “Value … LIN15 linear peptide array” value is reported as 337 mAU.

Same assay, conditions: mimic type LOOP7 (single loop, mP2 CLIPS); sample with the highest signal
In the case of “5 (CSTESYFIC; Human sCD31 peptide) [compound 5]”, the “Value (binding intensity of His-tagged CD38), LOOP7 conformational peptide array” value (“Value … LOOP7 conformational peptide array” below) is reported as 668 mAU.
With 191 (CRIYDSGTC) [compound 191] the “Value … LOOP7 conformational peptide array” value was 395 mAU.
218 (CESGEDIVC) [compound 218] was tested, and the “Value … LOOP7 conformational peptide array” value was 420 mAU.
In the case of 210 (CYDAQFEVC) [compound 210], the “Value … LOOP7 conformational peptide array” value is reported as 628 mAU.
In the case of 176 (CQSFADVSC) [compound 176], the “Value … LOOP7 conformational peptide array” value is reported as 413 mAU.
In the case of 175 (CLQSFADVC) [compound 175], the “Value … LOOP7 conformational peptide array” value is reported as 561 mAU.
In the case of 208 (CRISYDAQC) [compound 208], the “Value … LOOP7 conformational peptide array” value is reported as 287 mAU.
For 174 (CTLQSFADC) [compound 174], the “Value … LOOP7 conformational peptide array” value was 427 mAU.
In the case of 211 (CDAQFEVIC) [compound 211], the “Value … LOOP7 conformational peptide array” value is reported as 429 mAU.
186 (CSYFIPEVC) [compound 186] was tested, and the “Value … LOOP7 conformational peptide array” value was 400 mAU.
For 214 (CDVEYQSVC) [compound 214], the “Value … LOOP7 conformational peptide array” value was 556 mAU.
For 198 (CILEFPVEC) [compound 198], the “Value … LOOP7 conformational peptide array” value was 537 mAU.
In the case of 215 (CDEVQISIC) [compound 215], the “Value … LOOP7 conformational peptide array” value is reported as 378 mAU.
With 181 (CKDDVLFYC) [compound 181] the “Value … LOOP7 conformational peptide array” value was 579 mAU.
For 193 (CAEYQVLVC) [compound 193], the “Value … LOOP7 conformational peptide array” value was 508 mAU.
For 177 (CSFADVSTC) [compound 177], the “Value … LOOP7 conformational peptide array” value was 390 mAU.
196 (CQNFVILEC) [compound 196] was tested, and the “Value … LOOP7 conformational peptide array” value was 942 mAU.
In the case of 200 (CAQEFPEIC) [compound 200], the “Value … LOOP7 conformational peptide array” value is reported as 429 mAU.
In the case of 182 (CDDVLFYNC) [compound 182], the “Value … LOOP7 conformational peptide array” value is reported as 702 mAU.
For 184 (CKSTESYFC) [compound 184], the “Value … LOOP7 conformational peptide array” value was 339 mAU.
With 205 (CIVVNITEC) [compound 205] the “Value … LOOP7 conformational peptide array” value was 630 mAU.
In the case of 203 (CSSIVVNIC) [compound 203], the “Value … LOOP7 conformational peptide array” value is reported as 364 mAU.
In the case of 192 (CTAEYQVLC) [compound 192], the “Value … LOOP7 conformational peptide array” value is reported as 492 mAU.
With 226 (CYYSTAFNC) [compound 226] the “Value … LOOP7 conformational peptide array” value was 477 mAU.
For 188 (CFIPEVRIC) [compound 188], the “Value … LOOP7 conformational peptide array” value was 414 mAU.
185 (CTESYFIPC) [compound 185] was tested, and the “Value … LOOP7 conformational peptide array” value was 549 mAU.
For 206 (CVNITELFC) [compound 206], the “Value … LOOP7 conformational peptide array” value was 625 mAU.
In the case of 213 (CPTEDVEYC) [compound 213], the “Value … LOOP7 conformational peptide array” value is reported as 407 mAU.
187 (CYFIPEVRC) [compound 187] was tested, and the “Value … LOOP7 conformational peptide array” value was 523 mAU.
In the case of 207 (CNITELFSC) [compound 207], the “Value … LOOP7 conformational peptide array” value is reported as 512 mAU.
For 167 (CEDVEYQSC) [compound 167], the “Value … LOOP7 conformational peptide array” value was 804 mAU.

Same assay, conditions: mimic type LOOP15 (single loop, mP2 CLIPS); sample with the highest signal
For 231 (CHQMLFYKDDVLFYNIC) [compound 231], the “Value (binding intensity of His-tagged CD38), LOOP15 conformational peptide array” value (from here on “Value … LOOP15 conformational peptide array”) was 564 mAU.
For 236 (CFYNISSMKSTESYFIC) [compound 236], the “Value … LOOP15 conformational peptide array” value was 552 mAU.
240 (CSSMKSTESYFIPEVRC) [compound 240] was tested, and the “Value … LOOP15 conformational peptide array” value was 343 mAU.
In the case of 239 (CISSMKSTESYFIPEVC) [compound 239], the “Value … LOOP15 conformational peptide array” value is reported as 499 mAU.
263 (CSKVSSIVVNITELFSC) [compound 263] was tested, and the “Value … LOOP15 conformational peptide array” value was 593 mAU.
With 250 (CKNSRDQNFVILEFPVC) [compound 250] the “Value … LOOP15 conformational peptide array” value was 624 mAU.
With 228 (CVKPQHQMLFYKDDVLC) [compound 228] the “Value … LOOP15 conformational peptide array” value was 411 mAU.
243 (CSTESYFIPEVRIYDSC) [compound 243] was tested, and the “Value … LOOP15 conformational peptide array” value was 660 mAU.
256 (CTIQVTHLAQEFPEIIC) [compound 256] was tested, and the “Value … LOOP15 conformational peptide array” value was 504 mAU.
242 (CKSTESYFIPEVRIYDC) [compound 242] was tested, and the “Value … LOOP15 conformational peptide array” value was 528 mAU.
In the case of 257 (CIQVTHLAQEFPEIIIC) [compound 257], the “Value … LOOP15 conformational peptide array” value is reported as 797 mAU.
237 (CYNISSMKSTESYFIPC) [compound 237] was tested, and the “Value … LOOP15 conformational peptide array” value was 370 mAU.
In the case of 251 (CDQNFVILEFPVEEQDC) [compound 251], the “Value … LOOP15 conformational peptide array” value is reported as 634 mAU.
For 241 (CMKSTESYFIPEVRIYC) [compound 241], the “Value … LOOP15 conformational peptide array” value was 325 mAU.
With 264 (CKVSSIVVNITELFSKC) [compound 264] the “Value … LOOP15 conformational peptide array” value was 211 mAU.
